Laboratory results: the supplement of paper PMC10126150
± gives the standard deviation of the averaged measurements.

System: ATP
Test: switch fluorescence ratio, 500 uM ATP over buffer (Cy3 cluster intensity, sum of 5 cycles each) (fold (ratio)); higher = stronger signal-on switching upon ATP binding; sequences stand for … in TCGTCGGCAGCGTCAGATGTGTATAAGAGACAGTTTTTTTTTTTTTTTTTTTTTTTTT…TC
Conditions: aptamer strand: ATP DNA aptamer (quencher-CACCTGGGGGAGTATTGCGGAGGAAGG + anchor), 100 nM annealed; ATP concentration: 500 uM
Procedure, shortened: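 Clusters with intensities outside 100-1000 RFU were excluded. The remaining Cy3-labelled switching-strand clusters on a modified Illumina MiSeq flow-cell had been annealed to 100 nM quencher-labelled ATP aptamer and imaged in selection buffer, then after 15 min with 500 uM ATP at 22 °C, for five cycles separated by NaOH stripping and re-annealing. The fluorescence ratio, averaged per switch-domain sequence, is each cluster's summed target-cycle Cy3 intensity over its summed buffer-cycle Cy3 intensity.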
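Also: ATP exposure 15 min at 22 °C before imaging.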

GCTACAGCAT
switch fluorescence ratio: 1.06 ± 0.031

GATGTCTAGC
switch fluorescence ratio: 0.9894 ± 0.0065

AAAAGTAGGA
switch fluorescence ratio: 0.984 ± 0.065

ATTGTCTTGA
switch fluorescence ratio: 0.9688 ± 0.0015

GGCGTAATCT
switch fluorescence ratio: 1.04 ± 0.037

TATAACATAT
switch fluorescence ratio: 1.03 ± 0.041

CAAAGTACGT
switch fluorescence ratio: 1.18 ± 0.043

AATCAATTAA
switch fluorescence ratio: 1.001 ± 0.0016

AAAGGACACA
switch fluorescence ratio: 1.061 ± 0.01

AAGTTACTAC
switch fluorescence ratio: 1.06 ± 0.027

GTCGGCGTTG
switch fluorescence ratio: 0.9916 ± 0.0027

TCAAATTATG
switch fluorescence ratio: 1.01 ± 0.035

TTGAGTATTT
switch fluorescence ratio: 0.98182 ± 0.00089

TCTAAAGCTG
switch fluorescence ratio: 1 ± 0.023

AATACGGGAC
switch fluorescence ratio: 1.303 ± 0.0093

TCTATGGTCT
switch fluorescence ratio: 0.99 ± 0.011

GCCTTTCTGA
switch fluorescence ratio: 0.9855 ± 0.0061

TAGGTGCATA
switch fluorescence ratio: 1.03 ± 0.043

ATAAGGGAGT
switch fluorescence ratio: 0.9909 ± 0.0033

AGTTGTGAGG
switch fluorescence ratio: 1.01 ± 0.026

TTTTCGTTTC
switch fluorescence ratio: 1.01 ± 0.033

AAGGAATTTT
switch fluorescence ratio: 1.05 ± 0.1

GGATAATGAG
switch fluorescence ratio: 0.961 ± 0.028

ATGGTAAGGT
switch fluorescence ratio: 1 ± 0.014

TATGTACCTT
switch fluorescence ratio: 1.179 ± 0.0091

ACTTTGGGAT
switch fluorescence ratio: 1.023 ± 0.0029

CGGTTTTACT
switch fluorescence ratio: 1.04 ± 0.021

AATCGTACGT
switch fluorescence ratio: 0.959 ± 0.04

TTAAGGACTC
switch fluorescence ratio: 1.1 ± 0.042

TTGGGAGATG
switch fluorescence ratio: 1.1 ± 0.13

GAATGGGGTT
switch fluorescence ratio: 0.98 ± 0.026

AGTTTATACT
switch fluorescence ratio: 1.03 ± 0.0032

ACAACGGGGT
switch fluorescence ratio: 1.01 ± 0.046

TAAGGGTTAC
switch fluorescence ratio: 0.996 ± 0.03

ATTACGTCCT
switch fluorescence ratio: 1.03 ± 0.036

ATCAGATGAT
switch fluorescence ratio: 1.0009 ± 0.00017

TATAAAAATT
switch fluorescence ratio: 1.02 ± 0.025

GGATATTGTC
switch fluorescence ratio: 0.991 ± 0.024

AATGTTTATT
switch fluorescence ratio: 0.954 ± 0.01

CGATATGATG
switch fluorescence ratio: 1.01 ± 0.062

GTCTATATTT
switch fluorescence ratio: 1 ± 0.044

CCAGTGTGGT
switch fluorescence ratio: 1.07 ± 0.074

TCAAAATTTC
switch fluorescence ratio: 1.01 ± 0.0072

TTGGGGGGCG
switch fluorescence ratio: 1.01 ± 0.073

TTTGAATGGG
switch fluorescence ratio: 0.985 ± 0.029

GCGAAAGGGA
switch fluorescence ratio: 1.02 ± 0.036

GTAAATGGGG
switch fluorescence ratio: 0.975 ± 0.011

ATCTTGCGGA
switch fluorescence ratio: 1.02 ± 0.05

GGTGTGACCA
switch fluorescence ratio: 1.02 ± 0.015

CGTATCAATT
switch fluorescence ratio: 1.003 ± 0.004

ATGAAAATTA
switch fluorescence ratio: 0.975 ± 0.025

TCCCTCCCCT
switch fluorescence ratio: 1.25 ± 0.056

TGCATTACCC
switch fluorescence ratio: 1.25 ± 0.41

CCATCAAGTG
switch fluorescence ratio: 1.108 ± 0.0049

AACTCCGGCG
switch fluorescence ratio: 1.129 ± 0.0087

TTAGACCGTG
switch fluorescence ratio: 0.956 ± 0.079

TTTAGCGCAT
switch fluorescence ratio: 1.04 ± 0.06

GATCCTAACG
switch fluorescence ratio: 1.04 ± 0.048

CGACCTTGGC
switch fluorescence ratio: 1.02 ± 0.1

AGTCCGGGTA
switch fluorescence ratio: 1.08 ± 0.17

GGAGATTTGT
switch fluorescence ratio: 1.01 ± 0.032

CTGTTGAGGG
switch fluorescence ratio: 1 ± 0.027

GGAGGTGG
switch fluorescence ratio: 0.942 ± 0.026

GGAACTGGCG
switch fluorescence ratio: 0.938 ± 0.094

TTTTCAATCG
switch fluorescence ratio: 1.01 ± 0.045

GTTTGTAAGT
switch fluorescence ratio: 1.01 ± 0.045

TAGGGATGAT
switch fluorescence ratio: 0.9705 ± 0.0026

CCTGGGCAAG
switch fluorescence ratio: 3.81 ± 0.36

TCACGTTGGA
switch fluorescence ratio: 1.01 ± 0.019

AACCGTGGCG
switch fluorescence ratio: 1.07 ± 0.041

TGGGGGAGCA
switch fluorescence ratio: 0.9811 ± 0.0094

ATTTGCGATT
switch fluorescence ratio: 1.03 ± 0.019

TCAGACTTTG
switch fluorescence ratio: 0.978 ± 0.022

ATCGAATAGG
switch fluorescence ratio: 0.9872 ± 0.0022

TTGGTTGGCG
switch fluorescence ratio: 0.992 ± 0.041

CATGTTACGG
switch fluorescence ratio: 1.055 ± 0.0065

GCTGTTCTTC
switch fluorescence ratio: 0.985 ± 0.013

ATCACTGGGC
switch fluorescence ratio: 1.1 ± 0.092

AGTATGAGGT
switch fluorescence ratio: 0.98 ± 0.012

TAACCGGATT
switch fluorescence ratio: 1.1 ± 0.053

GGTTGAGTGT
switch fluorescence ratio: 0.9836 ± 0.0046

TTGCGGGGGT
switch fluorescence ratio: 1 ± 0.054

CTATCCGTGC
switch fluorescence ratio: 1.287 ± 0.0028

AAGGTGGGGA
switch fluorescence ratio: 1.02 ± 0.034

TTGTTTTGGG
switch fluorescence ratio: 1 ± 0.019

GCGGGCTAAC
switch fluorescence ratio: 1.17 ± 0.24

TTAAGACTTC
switch fluorescence ratio: 1.02 ± 0.041

CTTACAGGTT
switch fluorescence ratio: 0.99 ± 0.036

TTCACCCGGT
switch fluorescence ratio: 1.11 ± 0.12

ACTCTTTGAT
switch fluorescence ratio: 1.02 ± 0.0093

TCTGCTTCAG
switch fluorescence ratio: 0.973 ± 0.022

AGATTGTGCT
switch fluorescence ratio: 0.975 ± 0.046

TTCCGGAAGT
switch fluorescence ratio: 1.04 ± 0.04

CAGGGGGATA
switch fluorescence ratio: 1.3 ± 0.43

ATTAATATGT
switch fluorescence ratio: 0.999 ± 0.023

GTGGTACTGG
switch fluorescence ratio: 0.9683 ± 0.0066

AGGGGGCTGC
switch fluorescence ratio: 0.995 ± 0.023

GATTATCGTT
switch fluorescence ratio: 1.03 ± 0.027

AAAAGGGGCA
switch fluorescence ratio: 1.04 ± 0.051

ATATGTGGGC
switch fluorescence ratio: 0.9577 ± 0.0068

TAGGGTCGGG
switch fluorescence ratio: 0.9466 ± 0.0037

GGGGAGGGCG
switch fluorescence ratio: 0.967 ± 0.034

GGTCCATACG
switch fluorescence ratio: 1.01 ± 0.025

AATTGTTTTT
switch fluorescence ratio: 1 ± 0.021

ATATTGTCGT
switch fluorescence ratio: 1.011 ± 0.0053

TATCGGGATG
switch fluorescence ratio: 0.956 ± 0.03

AGGGCAGCGT
switch fluorescence ratio: 1.004 ± 0.0041

ATTTTGATAA
switch fluorescence ratio: 1.02 ± 0.021

AACTATATGG
switch fluorescence ratio: 1.046 ± 0.0081

ACACATAGGG
switch fluorescence ratio: 0.9985 ± 0.0084

CAACGGGTTC
switch fluorescence ratio: 1.03 ± 0.024

TTTAATCGTT
switch fluorescence ratio: 0.999 ± 0.014

CCGTTGTGAA
switch fluorescence ratio: 1.043 ± 0.0012

CGAAGTCGGG
switch fluorescence ratio: 0.955 ± 0.015

AGGGGGTACG
switch fluorescence ratio: 1.01 ± 0.035

CGGGGCCTTT
switch fluorescence ratio: 1.02 ± 0.037

ATACGGGGTA
switch fluorescence ratio: 1.03 ± 0.054

CTGAGGCTGG
switch fluorescence ratio: 0.9933 ± 0.0021

AAGTGGGTTC
switch fluorescence ratio: 0.9824 ± 0.0052

CGGGGACGAC
switch fluorescence ratio: 1.63 ± 0.72

AAAGGCGAGG
switch fluorescence ratio: 0.957 ± 0.015

TAGCATGGGG
switch fluorescence ratio: 0.991 ± 0.016

GGGATGAGGA
switch fluorescence ratio: 0.9848 ± 0.0044

TCTTTTTTGC
switch fluorescence ratio: 0.986 ± 0.073

GGGTACGGTG
switch fluorescence ratio: 1.07 ± 0.022

GGTTTTGTAT
switch fluorescence ratio: 0.993 ± 0.024

ATGCAATGGC
switch fluorescence ratio: 1.437 ± 0.012

TTAGTATCGG
switch fluorescence ratio: 0.999 ± 0.052

TTTGTTCCTT
switch fluorescence ratio: 1.01 ± 0.04

AGGGTCGGGC
switch fluorescence ratio: 1.027 ± 0.0061

ATTATGCTGG
switch fluorescence ratio: 0.994 ± 0.026

GATTTCAAAT
switch fluorescence ratio: 1.02 ± 0.023

TACTTTAGCT
switch fluorescence ratio: 1.109 ± 0.0069

TCCGGAGGGA
switch fluorescence ratio: 1.04 ± 0.089

CGATGGGCCT
switch fluorescence ratio: 1.01 ± 0.024

CACTATAACT
switch fluorescence ratio: 1.071 ± 0.0068

GATAAATCGG
switch fluorescence ratio: 0.981 ± 0.024

CGGGTCGCGG
switch fluorescence ratio: 0.992 ± 0.031

ATTTTAACGC
switch fluorescence ratio: 1.048 ± 0.0063

AGAAGGGGGG
switch fluorescence ratio: 0.998 ± 0.022

TCACTCATTT
switch fluorescence ratio: 1.01 ± 0.019

CGTGAATTGT
switch fluorescence ratio: 1.044 ± 0.01

ATGGTTTTGC
switch fluorescence ratio: 0.977 ± 0.029

CATACGGGGT
switch fluorescence ratio: 1.01 ± 0.032

GGGACAGCCT
switch fluorescence ratio: 1.01 ± 0.017

GTTTTATATG
switch fluorescence ratio: 0.978 ± 0.011

GGATGGGATA
switch fluorescence ratio: 1 ± 0.016

TTTGACTTTC
switch fluorescence ratio: 1.07 ± 0.025

TTAACTCGAC
switch fluorescence ratio: 1.07 ± 0.038

GAGGGGGTAG
switch fluorescence ratio: 0.997 ± 0.033

ATATTAAGTT
switch fluorescence ratio: 1.01 ± 0.003

ATAAAGTGTG
switch fluorescence ratio: 1.01 ± 0.02

TTATTCAGTC
switch fluorescence ratio: 0.98 ± 0.046

CCGTAGGGCT
switch fluorescence ratio: 1.05 ± 0.042

TTGGGAAACT
switch fluorescence ratio: 1.15 ± 0.24

CCGTGTTGCT
switch fluorescence ratio: 1.12 ± 0.061

TTTTTAGTTT
switch fluorescence ratio: 0.987 ± 0.028
